The supplement of paper PMC9732359
± gives the uncertainty stated by the source.

Assay: protein stability index of a GFP-peptide fusion (yeast GPS) (PSI 1-4); higher = more stable; sorted into four equal gates, so the index is relative within each strain
Outline: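 Tiled yeast protein peptides of 17 residues were each joined downstream of GFP, on plasmids that also express Cherry. The pooled library was maintained in yeast, and mid-log cultures in leucine-free medium were sorted into four equal gates on the GFP/Cherry ratio. Plasmids from every gate were amplified by PCR and sequenced on Illumina, with barcodes linking reads to strains. The protein stability index of a peptide is its gate-number-weighted read frequency summed over the gates.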

| Sequence | protein stability index (doa10∆) | protein stability index (pdr5∆) | protein stability index (san1∆) | protein stability index (ubr1∆) |
| --- | --- | --- | --- | --- |
| KTQEYYTQYTNDYLEKH [CDC53] | 2.99 ± 0.062 | 2.42 ± 0.067 | 2.96 ± 0.049 | 3.22 ± 0.062 |
| KTRFKGSQFIVVSLKEG [SMC2] | 3.46 ± 0.12 | 3.16 ± 0.08 | 3.35 ± 0.069 | 3.34 ± 0.046 |
| KTSKDIAVLRSKEWFQL [FAS1] | 2.01 ± 0.033 | 2.07 ± 0.031 | 1.91 ± 0.046 | 2.25 ± 0.032 |
| KTTDHLFDAAFYMKKDA [RPO31] | 3 ± 0.075 | 3.21 ± 0.071 | 3.21 ± 0.05 | 3.05 ± 0.054 |
| KTTPNTASSEASAGSKE [YMR153W/NUP53] | 2.98 ± 0.052 | 3.34 ± 0.061 | 3.16 ± 0.046 | 3.12 ± 0.038 |
| KTYKEGINKNEEYRKQL [SMC1] | 3.23 ± 0.16 | 2.2 ± 0.084 | 2.31 ± 0.077 | 2.19 ± 0.056 |
| KTYNCLHEKYLTEGGSI [SMC1] | 3.03 ± 0.14 | 3.05 ± 0.072 | 2.52 ± 0.076 | 2.98 ± 0.069 |
| KVDIFEIPETGEYSVKL [FAS2] | 3.17 ± 0.093 | 3.37 ± 0.08 | 3.27 ± 0.046 | 2.99 ± 0.049 |
| KVFDTLTRFSHDADLEV [RPN1] | 2.44 ± 0.073 | 2.31 ± 0.054 | 2.44 ± 0.063 | 2.67 ± 0.047 |
| KVGEDIAKATKEFKGIK [RPL12A] | 3.07 ± 0.16 | 3.22 ± 0.14 | 3.25 ± 0.15 | 3.17 ± 0.15 |
| KVGQFDQVLNLCLTEFE [FAS1] | 2.75 ± 0.076 | 2.97 ± 0.062 | 2.73 ± 0.06 | 3.11 ± 0.038 |
| KVKLFHGILDDLETSLS [MED2] | 3.17 ± 0.084 | 3.09 ± 0.075 | 3.14 ± 0.072 | 3.36 ± 0.055 |
| KVLEMKNLKDTASVEKA [YIL149C/MLP2] | 2.95 ± 0.091 | 3.26 ± 0.093 | 3.08 ± 0.098 | 3.21 ± 0.08 |
| KVNPNIMNMIENVEKKE [SMC2] | 2.46 ± 0.13 | 2.71 ± 0.12 | 2.36 ± 0.13 | 2.5 ± 0.064 |
| KVSSLKMFIQRILAMCV [YCS4] | 2.64 ± 0.069 | 2.48 ± 0.061 | 2.23 ± 0.063 | 2.88 ± 0.057 |
| KVVGPRGTLTKNLKHID [RPL9A] | 3.27 ± 0.072 | 2.98 ± 0.065 | 2.8 ± 0.086 | 2.35 ± 0.052 |
| KWAGIKTRKFVFNPPKP [CYT1] | 3.04 ± 0.16 | 2.98 ± 0.24 | 3.05 ± 0.17 | 2.95 ± 0.15 |
| KWEQTYKKPTGGIVTVR [FAS1] | 3.07 ± 0.064 | 2.04 ± 0.054 | 2.2 ± 0.1 | 2.37 ± 0.053 |
| KYKSGGKFSFSPLQKEE [SSN2] | 1.54 ± 0.072 | 1.43 ± 0.064 | 1.46 ± 0.15 | 1.53 ± 0.047 |
| KYKSNTNNMEKIIEDLR [SMC2] | 3.21 ± 0.061 | 3.23 ± 0.055 | 3.23 ± 0.034 | 3.2 ± 0.034 |
| KYLGLKPGSIDAISQVI [FAS1] | 3.1 ± 0.081 | 3.1 ± 0.075 | 2.91 ± 0.048 | 3.01 ± 0.061 |
| KYVHVSEVGNCSGSGMG [FAS2] | 2.88 ± 0.055 | 3.08 ± 0.058 | 2.92 ± 0.051 | 2.92 ± 0.041 |
| LAFDKLNVPVFQIVIEP [ARP7] | 2.12 ± 0.058 | 2.23 ± 0.061 | 1.8 ± 0.079 | 1.7 ± 0.056 |
| LAKERQKLWLLECQLFP [SSN8] | 2.06 ± 0.057 | 1.85 ± 0.052 | 1.47 ± 0.1 | 2.05 ± 0.047 |
| LAKKWFLQHPDEEYPVK [PRP8] | 3.23 ± 0.14 | 3.15 ± 0.15 | 3.26 ± 0.094 | 2.89 ± 0.16 |

| Sequence | protein stability index (doa10∆) | protein stability index (pdr5∆) | protein stability index (san1∆) | protein stability index (ubr1∆) |
| --- | --- | --- | --- | --- |
| LAKPVFHVGFIAKIKKV [RPO21] | 1.21 ± 0.053 | 2.15 ± 0.067 | 1.78 ± 0.073 | 2.02 ± 0.06 |
| LALALGILYMGQGEQVD [RPN1] | 1.26 ± 0.16 | 1.5 ± 0.13 | 1.45 ± 0.13 | 1.23 ± 0.11 |
| LALGSHNKLIQFGNACI [SSN2] | 2.13 ± 0.13 | 1.6 ± 0.087 | 2.2 ± 0.13 | 1.28 ± 0.089 |
| LANEERLSNEMHALKNR [RGR1] | 3.32 ± 0.12 | 3.42 ± 0.07 | 3.4 ± 0.059 | 3.66 ± 0.13 |
| LANRSKENFILDSLMKT [YJL039C/NUP192] | 2.47 ± 0.095 | 2.64 ± 0.12 | 3.03 ± 0.12 | 2.69 ± 0.069 |
| LARRTDAPFNKVVLKAL [RPL18A] | 1.22 ± 0.057 | 1.28 ± 0.048 | 1.18 ± 0.12 | 1.45 ± 0.068 |
| LASKIKQYERLRFYKDT [RRI1] | 2.63 ± 0.068 | 2.52 ± 0.062 | 1.97 ± 0.077 | 2.19 ± 0.08 |
| LASRNKWDDLNEQLTLL [RPN5] | 2.99 ± 0.09 | 3.4 ± 0.072 | 3.26 ± 0.056 | 3.12 ± 0.047 |
| LAVEDKPSPIDSGIGSN [CSL4] | 3.02 ± 0.069 | 3.27 ± 0.062 | 3.06 ± 0.052 | 3.08 ± 0.044 |
| LAVFLFDIYNRDRKLIT [YJL039C/NUP192] | 1.98 ± 0.2 | 1.46 ± 0.13 | – | – |
| LAVKVHGGSRYATKDGV [QCR2] | 1.62 ± 0.11 | 1.18 ± 0.1 | 1.17 ± 0.26 | 1.07 ± 0.089 |
| LAVSTILGKNFDSVIVE [SMC1] | 2.86 ± 0.066 | 2.59 ± 0.064 | 2.44 ± 0.056 | 2.45 ± 0.047 |
| LCHPKKEKYGLAVSTIL [SMC1] | 2.29 ± 0.063 | 2.31 ± 0.063 | 2.23 ± 0.091 | 2.15 ± 0.048 |
| LCLMTWKEVMFDPSKDV [CDC53] | 2.52 ± 0.079 | 2.72 ± 0.068 | 2.83 ± 0.097 | 3.09 ± 0.073 |
| LCQKSPVMADLNGGLQF [FAS2] | 2.79 ± 0.11 | 2.65 ± 0.17 | 2.94 ± 0.14 | 2.53 ± 0.2 |
| LCRNPLTSGLLYSYLIK [YJL039C/NUP192] | 2.07 ± 0.064 | 1.84 ± 0.06 | 1.67 ± 0.088 | 1.53 ± 0.036 |
| LDALVDCENFFNYVQEC [YJL039C/NUP192] | 3.37 ± 0.12 | 3.43 ± 0.084 | 3.44 ± 0.079 | 3.41 ± 0.065 |
| LDDEKIFSQTTNSTYNP [YJL039C/NUP192] | 2.78 ± 0.061 | 2.85 ± 0.053 | 2.91 ± 0.062 | 3.08 ± 0.045 |
| LDDLQVILAKNENETRD [PGD1] | 3.27 ± 0.099 | 3.05 ± 0.08 | 2.93 ± 0.14 | 3.38 ± 0.078 |
| LDEDDTNDGIERYSDKY [RPC31] | 3.32 ± 0.14 | 3.4 ± 0.12 | 3.22 ± 0.11 | 3.26 ± 0.074 |
| LDERGHEKIEDEDEDND [RPN4] | 3.37 ± 0.25 | 3.44 ± 0.15 | 3.48 ± 0.13 | 3.32 ± 0.17 |
| LDGELDFDDFLKLGLVE [RET1] | 3.36 ± 0.16 | 3.08 ± 0.12 | 2.81 ± 0.13 | 2.56 ± 0.17 |
| LDGVSYLHQNWVLHRDL [SSN3] | 2.34 ± 0.11 | 2.11 ± 0.081 | 2.77 ± 0.19 | 2.24 ± 0.087 |
| LDKDRKALIQRKGGKLE [RPL26A] | 2.48 ± 0.18 | 3.5 ± 0.21 | 3.12 ± 0.09 | 2.97 ± 0.14 |
| LDKLNCAINSKSRGSDL [RRP6] | 2.81 ± 0.049 | 2.93 ± 0.042 | 2.79 ± 0.042 | 2.94 ± 0.032 |
